Reference: patent publication US20160376333A1 (University of Washington, published 2016)
Where a chain is given by its changes, count along the chain named.

B1: Epstein-Barr virus BHRF1 a.a. 1-161 with C-terminal avi-6his tag (other)
chain: AYSTREILLALCIRDSRVHGNGTLHPVLELAARETPLRLSPEDTVVLRYHVLLEEIIERNSETFTETWNRFITHTEHVDLDFNSVFLEIFHRGDPSLGRALAWMAWCMHACRTLCCNQSTPYYVVDLSVRGMLEASEGLDGWIHQQGGWSTLIEDNIPGSGLNDIFEAQKIEWHEGSHHHHHH
notes: also called EBV BHRF1; BHRF1-biotin
B2: X-CDP08 (designed binder)
chain: ADPKKVLDKAKDRAENRVRKLKKELEKLYKEARKLDLTQEQRDRIINAAIAAMIAAFGDIFHAIMEAKEEARKLKKAGLVNSQQLDELKRRLDELDEEAAQRAEKLGKEFRLKFEY
B3: X-CDP06 (designed binder)
chain: B2 chain with K20E, E24K, D43N, R44K, I50M, M65Q, R72K, R111N
B4: X-CDP03 (designed binder)
chain: ADPKKVLDKAKDQAENRVRELKQKLEELYKEARKLDLTQEMRRELRNRAIAAILQAIGDLLNAIQQAKDEADKLKKAGLVNSQQLDELKRRLEELQNEAAEKAADYGEEFWLKLEY
B5: X-CDP01 (designed binder)
chain: ADPKKVLDKAKDQAENRVRELKQKLEELYKEARKLDLTQEMRRELQARYIAAMLAAAGDIMEAIQQAKNEADKLKKAGLVNSQQLDELKRRLEELAKEAARKAEDYGREFQLKLEY
B6: X-CDP02 (designed binder)
chain: B5 chain with R43K, Q46V, M61V, E62Q, Q66D, E104T
B7: X-CDP11 (designed binder)
chain: ADPKKVLDKAKDQAENRVRELKQKLEELYKEARKLDLTQEMRRELRDRYIAAMLAAIGDLFNAIQWAKQEADKLKKAGLVNSQQLDELKRRLEELAEEAARKAEDYGEEFKLKLEY
B8: X-CDP10 (designed binder)
chain: B7 chain with D47E, I57A, F61W, N62Y, Q65T, W66Q, Q69R, A96L, K111R
B9: X-CDP05 (designed binder)
chain: ADPKKVLDKAKDQAENRVRELKQKLEELYKEARKLDLTQEMRRQLRDQYIAAMLAAIGDLLNAIMQAKREADKLKKAGLVNSQQLDELKRRLEELEEEAAQKAADYGQEFLLKLEY
B10: X-CDP04 (designed binder)
chain: ADPKKVLDKAKDQAENRVRELKQKLEELYKEARKLDLTQEDRKRLLLQYIAAMLAAIGDLENAIRWAKREADKLKKAGLVNSQQLDELKRRLEELAKEAAEKAADYGEEFNLKLEY
B11: Index 35 (designed binder)
chain: GGDGVKELEELEKRKDEKKNKAEDRIKKFKDEAKYADDRTEDKEKLAHRWIALALDIIGDAFNLKEEARRRFLRHKFRGELDDSKKEYAEKEMKRFEDDVEKDAEELAQKAKEAFKEG
B12: Index 01 (designed binder)
chain: GKRLEETVEETERRLREALREVYLLILLLAEEAKKKDLKEQNRHEYVFKWIAFMLMAIGDIFNIAEESKRRLDLFAKWGLHDRNKIDEAKKKIDKLALEAIERAKKYGDWFLNELDKG
B13: Index 31 (designed binder)
chain: GDQADKIKDKIKDEAKKKADEFKKRLEQFREYLEKVYSDDLKEIYLTIFWIALALMLIGDAFNEKMLLEWEFKERKKRNLRHEEELKEEKKKREEAEKALEWASKYASQVGKEAAEEG
B14: Index 04 (designed binder)
chain: GLLAEEGREQAEERLREARKKAEKAGDKIKDLAKYGQDSDDEKKKFMLKWIAAQLMVIGDMFNHAMEALWELLRRLKNNKISWDAFLKAKEEIEREEKEAARDSREKGREAAKMIDQG
B15: Index 37 (designed binder)
chain: GDFWLKAIEIAGGRMLERARESWYRALYFILMVKLFYPSDDLRRIFTLRWIAESLKLIGDAFNLFELARELLELYYKYGWITLEKALKALWILLKLEEIFSKASKDLGERLAEEIERG
B16: Index 33 (designed binder)
chain: GKQWQEAFEEARRRIEEKAREFEDRAKKEALLHLFFIPHDKEIADNSKKWIAWALMLIGDIFNLEEEAAERARRHVKRGEISEDDAKQIRKRLQEQAKRAAWWMRYWGEESAKFAFIG
B17: Index 03 (designed binder)
chain: GLDHDKIVDEARKKMEKKIREAKDKAKEFVLKALDNNHDLKQFRELAHKWIALMLMAIGDAFNIMMEAKRKAEWLREQGQQDEDKAEEAKEKLDKAFKEAAERFEEIAKIYGKQAKNG
B18: Index 30 (designed binder)
chain: GSRWFDAEDKMRERKDRAILQLLFMLWIIFYILWYGDDTEEAKRKAMAAWIALALIGIGDIFNAEAEFLEELERAIKQGQVSDQLKEELLKRMEDDKRDLEKRLYEFLLKALLQWMQG
B19: Index 29 (designed binder)
chain: GEVAKDLAKLAIDLAKKLMLLFWWFFELFKLFAKFTDEWQEWKARGTAFWIALSLAAIGDFFNARRRAELQAREGKQKGLTTEEKEKRWREHLKEAWEKLEKISRLAFLFAQEAENQG
B20: Index 34 (designed binder)
chain: GKFKKLFENYAELFARWVADKGKKLAEELREKAEKGLKLQKLWLIFTMIWIAIMLMSIGDAFNLALLAELWVQAAKNYGWLRDNEADEAEDRVRKFADEASRRALEKGLEALRKILEG
B21: Index 02 (designed binder)
chain: GKSLLGIALEALEEAKRDLEKAKKQMEEMLKKKWKFDTTRDLKARASAEWIAAALKAIGDRFNAKLLIELGLDELFNKGLITQDIKEDIKRRAEEIFEKIERLIKQAIKDKDRFEKLG
B22: Index 36 (designed binder)
chain: GYTKEWIRDRAKEELDRFADEAKDKADKIRDDFEKRDDKNQIAAELTKKWIAAELEAIGDAFNRAEEAKERLKKLLKLGLTRKEEAEEAAEKLEKLEKEASEKLSKIAHEVSKHDDQG
B23: Index 32 (designed binder)
chain: GGDENKLKDYVKDEIERGLNEIEDLARKIEQLARRFFPKDEERMKFTMWWIAAALMAIGDIFNAKEYARERAEEIRRKGLRREEEARRIEKFIEEEAEKAAKKAAKLGDHLAEELFRG
B24: human Bcl-XL a.a. 1-205 with C-terminal avi-6his tag (other)
chain: SQSNRELVVDFLSYKLSQKGYSWSQFSDVEENRTEAPEGTESEMETPSAINGNPSWHLADSPAVNGATGHSSSLDAREVIPMAAVKQALREAGDEFELRYRRAFSDLTSQLHITPGTAYQSFEQVVNELFRDGVNWGRIVAFFSFGGALCVESVDKEMQVLVSRIAAWMATYLNDHLEPWIQENGGWDTFVELYGNNAAAESRKGLNDIFEAQKIEWHEGSHHHHHH
notes: also called BCL2L1
B25: human Bcl-B a.a. 11-175 with C-terminal avi-6his tag (other)
chain: ADPLRERTELLLADYLGYCAREPGTPEPAPSTPEAAVLRSAAARLRQIHRSFFSAYLGYPGNRFELVALMADSVLSDSPGPTWGRVVTLVTFAGTLLERGPLVTARWKKWGFQPRLKEQEGDVARDCQRLVALLSSRLMGQHRAWLQAQGGWDGFCHFFRTPFPGLNDIFEAQKIEWHEGSHHHHHH
notes: also called BCL2L10
B26: M-CDP05 (designed binder)
chain: ADPKKVLDKAKDQAENRVRELKQKLEELYKEARKLDLTQEERHRLETKALSALLAAIGDILDAIMQALQEAAKLKKAGLVNSQQLDELKRRLEELRKEASRKARDYGREFWLKLDY
B27: M-CDP01 (designed binder)
chain: ADPKKVLDKAKDQAENRVRELKQELEELYKKARKLDLTQEERRKLEEEAIAALLRAIGDIYNAIQQALNEADKLKKAGLVNSQQLDELKRRLEELKKEASKKARDYGLEFFEKLDY

What follows are binders tested against human Bim-BH3 (a.a. 141-166) displayed on yeast (human, UniProt O43521 141-166) (assay: yeast surface display titration (apparent KD)).
human Bim-BH3 (a.a. 141-166) displayed on yeast, sequence (O43521 141-166 limits assumed): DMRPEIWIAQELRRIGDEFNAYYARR
B1 was tested, and the Kd was 12 nM.

These binders were tested against B24 (assay: initial BLI screening (column 'Binds target?')).
B2: binds. B3: binds. B4: binds. B5: binds. B6: binds. B7: binds. B8: binds. B9: binds. B10: binds.

Molecular target: B1
Test: yeast display library, FACS sort at 100 nM BHRF1, deep sequencing
B11 gave a Log2 enrichment ratio of -3.51 log2. B12 was tested, and the Log2 enrichment ratio was 4.02 log2. For B13, the Log2 enrichment ratio was -3.55 log2. Work on B14 yielded a Log2 enrichment ratio of 2.11 log2. B15 gave a Log2 enrichment ratio of -3.13 log2. Binder B16 has a Log2 enrichment ratio of -4.18 log2. B17 was tested, and the Log2 enrichment ratio was 2.52 log2. Work on B18 yielded a Log2 enrichment ratio of -2.58 log2. Work on B19 yielded a Log2 enrichment ratio of -1.66 log2. In the case of B20, the Log2 enrichment ratio is reported as -3.41 log2. B21 showed a Log2 enrichment ratio of 3.92 log2. With B22 the Log2 enrichment ratio was -3.6 log2. B23 showed a Log2 enrichment ratio of -2 log2.

Molecular target: B1
Test: yeast display library, FACS sort at 400 nM BHRF1, deep sequencing
For B11, the Log2 enrichment ratio was -3.29 log2. Work on B12 yielded a Log2 enrichment ratio of 3.54 log2. Binder B13 has a Log2 enrichment ratio of -4.21 log2. B14 gave a Log2 enrichment ratio of 1.96 log2. With B15 the Log2 enrichment ratio was -2.14 log2. B16 showed a Log2 enrichment ratio of -3.85 log2. In the case of B17, the Log2 enrichment ratio is reported as 3.17 log2. In the case of B18, the Log2 enrichment ratio is reported as -4.1 log2. B19 showed a Log2 enrichment ratio of -2.43 log2. For B20, the Log2 enrichment ratio was -2.21 log2. Work on B21 yielded a Log2 enrichment ratio of 3.43 log2. B22 showed a Log2 enrichment ratio of -3.65 log2. B23 was tested, and the Log2 enrichment ratio was -2.56 log2.

The binders below were run against T1, Bim-BH3 motif fused to the C-terminus of maltose-binding protein (MBP) (human, UniProt O43521 141-166) (assay: BLI, biotinylated target on streptavidin sensor, MBP-Bim-BH3 in solution).
T1 construct: domain: Bim-BH3 motif; also called MBP-Bim-BH3
B24 was tested, and the Kd was 1.56 nM. For B1, the Kd was 7 nM. B25 showed a Kd of 7 nM.

Molecular target: B1
Test: yeast surface display; BHRF1 titrated on clonal yeast showing the design, fluorescence by flow cytometry (apparent KD)
In the case of B12, the Kd is reported as 39 nM. In the case of B14, the Kd is reported as 44 nM. With B17 the Kd was 160 nM. B21 showed a Kd of 110 nM.

Molecular target: T2, human Mcl-1 a.a. 172-327 with C-terminal avi-6his tag (human)
T2 chain: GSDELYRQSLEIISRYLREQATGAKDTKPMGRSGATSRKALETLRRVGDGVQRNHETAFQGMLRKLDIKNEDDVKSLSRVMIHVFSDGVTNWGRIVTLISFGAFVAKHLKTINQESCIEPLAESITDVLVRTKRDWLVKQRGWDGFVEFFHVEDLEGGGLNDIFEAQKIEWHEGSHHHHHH
Test: BLI at a single analyte concentration (50 nM, 600 s association, then buffer); biotinylated BCL2 protein on a streptavidin sensor
B26: binds. B27: binds.
